# Experimental data reported in US20110045489A1, “Polymerases for Incorporating Modified Nucleotides” (NEW ENGLAND BIOLABS, INC., priority 2008, published 2011).
# B1: 9° N exo-L408S/Y409A/P410V: 9° N DNA polymerase mutant (Therminator III™, NEB) (protein, UniProt Q56366 1-775, looked up, variant D141A E143A L408S Y409A P410V)
# DNA polymerase: MILDTDYITENGKPVIRVFKKENGEFKIEYDRTFEPYFYALLKDDSAIEDVKKVTAKRHGTVVKVKRAEKVQKKFLGRPIEVWKLYFNHPQDVPAIRDRIRAHPAVVDIYEYDIPFAKRYLIDKGLIPMEGDEELTMLAFAIATLYHEGEEFGTGPILMISYADGSEARVITWKKIDLPYVDVVSTEKEMIKRFLRVVREKDPDVLITYNGDNFDFAYLKKRCEELGIKFTLGRDGSEPKIQRMGDRFAVEVKGRIHFDLYPVIRRTINLPTYTLEAVYEAVFGKPKEKVYAEEIAQAWESGEGLERVARYSMEDAKVTYELGREFFPMEAQLSRLIGQSLWDVSRSSTGNLVEWFLLRKAYKRNELAPNKPDERELARRRGGYAGGYVKEPERGLWDNIVYLDFRSSAVSIIITHNVSPDTLNREGCKEYDVAPEVGHKFCKDFPGFIPSLLGDLLEERQKIKRKMKATVDPLEKKLLDYRQRAIKILANSFYGYYGYAKARWYCKECAESVTAWGREYIEMVIRELEEKFGFKVLYADTDGLHATIPGADAETVKKKAKEFLKYINPKLPGLLELEYEGFYVRGFFVTKKKYAVIDEEGKITTRGLEIVRRDWSEIAKETQARVLEAILKHGDVEEAVRIVKEVTEKLSKYEVPPEKLVIHEQITRDLRDYKATGPHVAVAKRLAARGVKIRPGTVISYIVLKGSGRIGDRAIPADEFDPTKHRYDAEYYIENQVLPAVERILKAFGYRKEDLRYQKTKQVGLGAWLKVKGKK
# Legend:
# Type in all cases: biochemical
# [1] = system: 3′-azido-ddCTP; assay: Kinetic analysis of 3′-azido-ddCTP incorporation (primer extension, PAGE)
# Experimental: An IR800-dye-labeled synthetic primer 5′-AGTGAATTCGAGCTCGGTACCCGGGGATCCTCTAGAGTCGACCTGCAGGC-3′ (SEQ ID NO:18) was annealed to a template 3′-TCACTTAAGCTCGAGCCATGGGCCCCTAGGAGATCTCAGCTGGACGTCCGGATCCTATACTAATCCC-5′ (SEQ ID NO:19) and used as a substrate to measure rates of 3′-azido-ddCTP incorporation. Incorporation of varying concentrations of 3′-azido-ddCTP (100, 50, 25, 12.5, 6.25, and 3.125 μM) by 9° N exo-L408S/Y409A/P410V DNA polymerase was monitored over a three-minute time course. Reaction aliquots were sampled at 10, 20, 30, 45, 60, and 180 seconds and analyzed by 20% denaturing PAGE. “S” is the unextended primer and “P” is the fully extended product corresponding to 3′-azido-ddCMP addition at the +1 position.
# (§1) An IR800-dye-labeled synthetic primer 5′-AGTGAATTCGAGCTCGGTACCCGGGGATCCTCTAGAGTCGACCTGCAGGC-3′ (SEQ ID NO:18) was annealed to a template 3′-TCACTTAAGCTCGAGCCATGGGCCCCTAGGAGATCTCAGCTGGACGTCCGGATCCTATACTAATCCC-5′ (SEQ ID NO:19) and used as a substrate. Reaction aliquots were sampled at 10, 30, 60, 120 and 300 seconds and analyzed by 20% denaturing PAGE. Unextended primer (0) and fully extended product (+1) are indicated.
# Linear rates of 3′-azido-ddCTP incorporation derived from these curves are 100 μM: 0.05 s^−1; 50 μM: 0.05 s^−1; 25 μM: 0.05s^−1; 12.5 μM: 0.03s^−1; 6.25 μM: 0.03s^−1; 3.125 μM: 0.02 s^−1.
# An IR800-dye-labeled synthetic primer 5′-AGTGAATTCGAGCTCGGTACCCGGGGATCCTCTAGAGTCGACCTGCAGGC-3′ (SEQ ID NO:18 was annealed to a template 3′-TCACTTAAGCTCGAGCCATGGGCCCCTAGGAGATCTCAGCTGGACGTCCGGATCCTATACTAATCCC-5′ (SEQ ID NO:19) and used as a substrate to measure rates of 3′-azido-ddCTP incorporation over a three-minute time course. The results are shown in FIG. 2. Reaction aliquots were sampled at 10, 20, 30, 45, 60, and 180 seconds and analyzed by 20% denaturing PAGE where “S” indicates the unextended primer and “P” the fully extended product corresponding to 3′-azido-ddCMP addition at the +1 position(B). 9° N exo-L408S/Y409A/P410V incorporation of varying concentrations of 3′-azido-ddCTP was measured over a three-minute time course.
# [2] = system: 3′-amino-ddCTP; assay: Kinetic analysis of 3′-amino-ddCTP incorporation (primer extension, PAGE); conditions: FIG. 3
# Text: as §1
# Furthermore, the same assay was used to measure 3′-amino-ddCTP incorporation by 9° N exo-L408S/Y409A/P410V (FIG. 3) and to measure rates of incorporation (FIG. 4). Examples of mutants that increased modified nucleotide incorporation by at least two-fold were: […]
# [3] = system: modified nucleotide; assay: Screen of DNA polymerase mutants for modified nucleotide incorporation
# Procedure, shortened: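 Chain-terminator titration (Gardner and Jack 2002) compared terminator amounts giving equal product-size spectra, product size shrinking as terminator incorporation rises. Applied to purified 9° N exo- polymerase library mutants with 3′-azido-ddCTP and 3′-amino-ddCTP; incorporation rates also measured.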
molecule,measurement,setting,value
B1,linear rate of 3′-azido-ddCTP incorporation,[1]; 3.125 μM 3′-azido-ddCTP,0.02 s⁻¹
same,linear rate of 3′-azido-ddCTP incorporation,[1]; 6.25 μM 3′-azido-ddCTP,0.03 s⁻¹
same,linear rate of 3′-azido-ddCTP incorporation,[1]; 12.5 μM 3′-azido-ddCTP,0.03 s⁻¹
same,linear rate of 3′-azido-ddCTP incorporation,[1]; 25 μM 3′-azido-ddCTP,0.05 s⁻¹
same,linear rate of 3′-azido-ddCTP incorporation,[1]; 50 μM 3′-azido-ddCTP,0.05 s⁻¹
same,linear rate of 3′-azido-ddCTP incorporation,[1]; 100 μM 3′-azido-ddCTP,0.05 s⁻¹
same,concentration of modified nucleotide sufficient for efficient incorporation,"[1]; 3′-azido-ddCTP, FIG. 3",10 µM
same,3′-azido-ddCTP incorporation,[1]; after three minutes,~100%
same,concentration of modified nucleotide sufficient for efficient incorporation,[2],10 µM
same,increase of modified nucleotide incorporation,[3],at least two-fold
